± gives the uncertainty stated by the source.
Assay: protein stability index of a GFP-peptide fusion (yeast GPS) (PSI 1-4); higher = more stable; sorted into four equal gates, so the index is relative within each strain
Procedure, shortened: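 Yeast carrying a pooled library were grown to mid-log phase in leucine-free medium. Each library plasmid expresses Cherry and has a tiled 17-residue yeast protein peptide fused downstream of GFP. Cells were sorted into four equal gates by GFP/Cherry ratio, and plasmids from each gate were PCR-amplified, Illumina-sequenced and assigned to strains by barcode. Summing, across gates, the read frequency times the gate number gave each peptide's protein stability index.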

Sequence | protein stability index (doa10∆) | protein stability index (pdr5∆) | protein stability index (san1∆) | protein stability index (ubr1∆)
SLKALASKYNCDKSVCR [RPL40A] | 3.08 ± 0.069 | 2.97 ± 0.089 | 3.12 ± 0.054 | 2.94 ± 0.087
RSLASFEQTAFSRHAQQ [SIR4] | 2.84 ± 0.059 | 2.73 ± 0.045 | 2.82 ± 0.05 | 2.77 ± 0.05
AAAGAAMIDAGALEEIT [FAS2] | 2.72 ± 0.15 | 2.96 ± 0.11 |  | 2.73 ± 0.1
YQVDEDVKSSLSKVFSD [YJL039C/NUP192] | 3.23 ± 0.17 | 3.42 ± 0.14 | 3.33 ± 0.17 | 2.93 ± 0.22
VTSKVRNAEFKVSKNST [YMR153W/NUP53] | 3.08 ± 0.15 | 3.49 ± 0.19 | 2.98 ± 0.11 | 3.28 ± 0.29
VAATNTPIIFIGTGEHI [SRP54] | 2.17 ± 0.1 | 3.03 ± 0.12 | 2.26 ± 0.083 | 2.6 ± 0.071
LWELALAFIPNILALNL [YML031W/NDC1] | 2.01 ± 0.069 | 1.86 ± 0.048 | 1.85 ± 0.083 | 1.34 ± 0.061
KRLLYTRRFVNVTLVNG [RPS30A] | 2.03 ± 0.051 | 1.44 ± 0.04 | 1.62 ± 0.099 | 1.91 ± 0.059
RLFIGDQNNKKMVGLRG [SNF2] | 2.65 ± 0.1 | 2.87 ± 0.085 | 2.36 ± 0.1 | 2.69 ± 0.082
ESDSKLQCHISGTTNFM [UBP6] | 2.63 ± 0.23 | 2.69 ± 0.26 | 2.92 ± 0.28 | 3.08 ± 0.15
VAAKWNTSLISLFTYFR [PRP8] | 1.7 ± 0.064 | 1.97 ± 0.095 | 1.74 ± 0.18 | 2 ± 0.039
SMSGRISAKDMGQGLCN [BRR2] | 3 ± 0.11 | 3.03 ± 0.084 | 3.02 ± 0.076 | 3.19 ± 0.078
RENVFFQSQQRRKDTSM [RPB9] | 3.07 ± 0.083 | 3.4 ± 0.11 | 3.34 ± 0.065 | 2.75 ± 0.15
IQVFEKPFLKKTQEYYT [CDC53] | 2.36 ± 0.073 | 2.33 ± 0.056 | 2.57 ± 0.078 | 2.57 ± 0.053
ILTEHLGYPPISLVDDI [MTW1] | 2.36 ± 0.054 | 2.17 ± 0.047 | 2.22 ± 0.071 | 2.11 ± 0.042
SLSDELNLDEIVACELI [YJL039C/NUP192] | 2.75 ± 0.13 | 2.53 ± 0.1 |  | 2.61 ± 0.14
LVETCLNDLVESSFIEI [BRR2] | 3.03 ± 0.053 | 2.75 ± 0.063 | 2.69 ± 0.085 | 2.46 ± 0.054
AGVNNDNTKESKDVKMN [RTT102] | 3.1 ± 0.25 |  |  | 2.35 ± 0.24
SNTTTHVPEKKSTDLTP [MTR3] |  |  | 2.15 ± 0.18 | 1.31 ± 0.29
AISGKKTTYYYYNEEGI [RPC82] | 2.61 ± 0.067 | 2.97 ± 0.14 | 2.8 ± 0.056 | 3.06 ± 0.076
EALQYDPQPFLKHVLQL [SNU114] | 2.17 ± 0.04 | 2.53 ± 0.047 | 2.35 ± 0.075 | 2.65 ± 0.038
KEEELIERDSLVDDENE [BRN1] |  |  |  | 3.25 ± 0.15
HISKIIGLDTQQVEGKL [RPN6] | 2.95 ± 0.071 | 3.43 ± 0.093 | 2.9 ± 0.065 | 2.86 ± 0.059
RSIRGSFTSQGTISIQL [MTR3] | 2.78 ± 0.067 | 2.73 ± 0.057 | 2.77 ± 0.066 | 2.61 ± 0.041
HIRRMVPLAMGIVSVSD [RPN1] | 1.32 ± 0.039 | 1.61 ± 0.052 | 1.55 ± 0.083 | 1.57 ± 0.044
TVPEYLKTADNRDRSFQ [PGD1] | 3.08 ± 0.084 | 3.07 ± 0.079 | 3.3 ± 0.038 | 3.07 ± 0.049

Sequence | protein stability index (doa10∆) | protein stability index (pdr5∆) | protein stability index (san1∆) | protein stability index (ubr1∆)
IEQEKQEQQEQDKKKKS [PRE6] | 2.17 ± 0.069 | 1.82 ± 0.06 | 2.59 ± 0.077 | 1.59 ± 0.049
KPMAFSNTTTHVPEKKS [MTR3] | 1.46 ± 0.053 | 2.04 ± 0.052 | 2.32 ± 0.082 | 1.62 ± 0.034
RVRAESLHSNSFSLTVS [YJL039C/NUP192] | 1.74 ± 0.066 | 1.76 ± 0.072 | 1.43 ± 0.17 | 1.75 ± 0.064
SPPPQTHQSPPPPPQQS [SNF5] | 2.87 ± 0.034 | 2.72 ± 0.029 | 2.75 ± 0.032 | 2.74 ± 0.03
PAGQATQKRTHVLKKNP [RPL4A] | 2.95 ± 0.22 | 3.21 ± 0.21 | 3.28 ± 0.22 | 2.74 ± 0.14
STELNNKQYELFMKSLI [SWI1] | 3.03 ± 0.075 | 2.94 ± 0.058 | 3.16 ± 0.039 | 2.74 ± 0.048
SLNLTDDVISNAGTNDN [MCD1] | 2.88 ± 0.047 | 2.97 ± 0.057 | 3.11 ± 0.036 | 2.96 ± 0.041
NNHNDSNRLHPPDIHPN [GRR1] | 2.76 ± 0.046 | 2.82 ± 0.044 | 2.8 ± 0.039 | 2.77 ± 0.035
GDKFSEDFRIQFKTTIK [UBP6] | 3.14 ± 0.1 | 2.93 ± 0.09 | 2.32 ± 0.087 | 2.58 ± 0.059
AYGVLDSNYKWDLSVED [PRE2] | 3 ± 0.073 | 2.94 ± 0.083 | 3.26 ± 0.086 | 3.42 ± 0.056
EARFWHLVELLLVFRNA [YDL116W/NUP84] | 2.69 ± 0.079 | 2.1 ± 0.065 | 2.06 ± 0.085 | 2.02 ± 0.064
LKTEAANVLDPSLRKLI [BRR2] | 2.44 ± 0.052 | 2.61 ± 0.059 | 2.9 ± 0.064 | 2.68 ± 0.039
LTIKDIVLGVKDLQENL [RPO21] |  | 2.86 ± 0.29 | 3.6 ± 0.048 | 
GAIKPFTPKLIYDFITL [ECM29] | 1.73 ± 0.081 | 1.84 ± 0.098 | 1.87 ± 0.3 | 1.36 ± 0.062
DDELMNWRRLSGRNIHL [SSN2] | 3 ± 0.088 | 2.91 ± 0.074 | 3.01 ± 0.087 | 3.19 ± 0.09
GAKFENIVHNFKERQMM [AAR2] | 3.32 ± 0.081 | 2.71 ± 0.096 | 2.76 ± 0.089 | 3.04 ± 0.11
HLHDAVFVNTGLQNVRK [SWP82] | 2.99 ± 0.14 | 2.84 ± 0.076 | 2.77 ± 0.1 | 2.73 ± 0.088
HLGLDDPQDVFNYNIFM [SIR2] | 2.99 ± 0.087 | 3.2 ± 0.14 | 3.24 ± 0.13 | 3.26 ± 0.078
IINPHAIPSRMTVAHLI [RPB2] | 1.79 ± 0.054 | 2.06 ± 0.044 | 1.86 ± 0.076 | 2.1 ± 0.046
KAPEQFIENFLTNDTFE [YML103C/NUP188] | 2.84 ± 0.12 | 3.16 ± 0.1 | 2.93 ± 0.12 | 3.02 ± 0.075
NYDCKVISIVGGHSLEE [PRP28] | 2.93 ± 0.055 | 2.91 ± 0.059 | 2.88 ± 0.042 | 2.83 ± 0.041
WGYQMVWAPTQKCFKLT [POP1] | 2.59 ± 0.069 | 2.62 ± 0.068 | 2.57 ± 0.069 | 2.66 ± 0.067
LVCGNDSSYQDIFAVNL [RET1] |  | 2.04 ± 0.25 | 2.24 ± 0.26 | 
PIAAPKKPRKPRQTKKA [PGD1] | 2.64 ± 0.11 | 3.18 ± 0.092 | 2.56 ± 0.082 | 3.09 ± 0.097
FRVQSQSNYGIYSSDAQ [NUT1] | 2.03 ± 0.053 | 2.51 ± 0.059 | 1.8 ± 0.074 | 2.42 ± 0.1

Reference: the supplement of paper PMC9732359
